Measured values from publication PMC8523169, “Competitive binding of MatP and topoisomerase IV to the MukB hinge domain” (eLife, 2021).

Legend:
[1] = molecular target: the molecule itself; test: native MS; proteins buffer exchanged into 200 mM ammonium acetate pH 8.0, alone or mixed in different ratios (two or three components, with or without 50 bp DNA), 10 min on ice
[2] = molecular target: T1, MatPΔ18C (1–132), C-terminal 6xHis-tag (E. coli, UniProt P0A8N0 1-132); test: as above; details: both partners purified
T1 construct: MatP, E. coli, residues 1-132 (deletion of the 18 C-terminal residues); also called MatPΔ18C-His; MatP2; source: overexpressed, purified as previously published (Nolivos et al., 2016) with an added SEC step; not shown: His6, C-terminal, kept
T1 sequence (looked up): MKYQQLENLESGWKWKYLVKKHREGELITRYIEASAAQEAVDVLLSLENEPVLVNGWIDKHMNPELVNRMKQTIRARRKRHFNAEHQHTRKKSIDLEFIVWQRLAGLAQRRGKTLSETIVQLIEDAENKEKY

[3] = molecular target: T2, full-length ParC, N-terminal 6xHis-tag (E. coli, UniProt P0AFI2 1-752); test: SEC; topoIV reconstitution: equimolar ParC and ParE, 30 min on ice, verified in analytical SEC; details: both partners purified
T2 construct: ParC subunit of topoisomerase IV, E. coli, full length; also called His-ParC; ParC2; source: overexpressed, purified as previously published (Nolivos et al., 2016) with an added SEC step; not shown: His6, N-terminal, kept
T2 sequence (looked up): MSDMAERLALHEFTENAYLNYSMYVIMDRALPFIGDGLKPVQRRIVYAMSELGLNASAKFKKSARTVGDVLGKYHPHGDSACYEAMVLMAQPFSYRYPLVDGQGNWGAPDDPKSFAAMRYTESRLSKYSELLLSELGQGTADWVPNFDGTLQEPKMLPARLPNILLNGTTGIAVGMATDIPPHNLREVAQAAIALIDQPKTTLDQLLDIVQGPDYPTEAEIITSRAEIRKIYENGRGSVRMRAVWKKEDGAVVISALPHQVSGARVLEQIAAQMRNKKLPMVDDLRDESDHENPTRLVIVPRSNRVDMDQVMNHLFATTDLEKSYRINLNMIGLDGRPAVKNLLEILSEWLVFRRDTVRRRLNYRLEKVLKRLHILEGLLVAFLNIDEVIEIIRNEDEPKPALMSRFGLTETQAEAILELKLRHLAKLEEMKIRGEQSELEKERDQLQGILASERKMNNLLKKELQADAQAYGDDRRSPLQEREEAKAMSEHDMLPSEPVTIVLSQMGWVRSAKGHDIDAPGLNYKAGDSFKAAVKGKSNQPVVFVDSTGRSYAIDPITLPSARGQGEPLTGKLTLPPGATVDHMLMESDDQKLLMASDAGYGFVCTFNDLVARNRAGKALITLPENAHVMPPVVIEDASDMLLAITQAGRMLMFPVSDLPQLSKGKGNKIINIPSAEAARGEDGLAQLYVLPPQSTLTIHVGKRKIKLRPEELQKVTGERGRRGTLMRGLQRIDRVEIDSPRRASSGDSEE

B1: MatP^4E (K71E, Q72E, R75E, and R77E) (domain or fragment, E. coli, UniProt P0A8N0 1-132, looked up)
chain: MKYQQLENLESGWKWKYLVKKHREGELITRYIEASAAQEAVDVLLSLENEPVLVNGWIDKHMNPELVNRMEETIEAERKRHFNAEHQHTRKKSIDLEFIVWQRLAGLAQRRGKTLSETIVQLIEDAENKEKY
notes: MatP, E. coli, residues 1-132 (MatPΔ18C) with four substitutions; also called MatP K71E, Q72E, R75E, R77E; source: site-directed mutagenesis, purified using the same protocol as MatP
Q: Which “stoichiometry N” value [1] does the source give for B1 here?
A: 2

B2: MukB short hinge (SH; amino acid residues 667–779) (domain or fragment, E. coli, UniProt P22523 667-779, looked up)
chain: GGSEDQRLNALAERFGGVLLSEIYDDVSLEDAPYFSALYGPSRHAIVVPDLSQVTEHLEGLTDCPEDLYLIEGDPQSFDDSVFSVDELEKAVVVKIADRQWRYSRFPEVPLFG
notes: MukB, E. coli, residues 667-779: hinge lacking the entire coiled-coil; Monomer/dimer mix at tens of µM by nMS; also called SH-His; SH MukB; source: overexpressed, purified (TALON, HiTrap Q XL, SEC); not shown: His6, C-terminal, kept
Q: Which results are given for B2?
A: stoichiometry N [1]: 2; binding result [2]: binds

B3: His-ParC R705E R729A (enzyme, E. coli, UniProt P0AFI2 1-752, looked up)
chain: MSDMAERLALHEFTENAYLNYSMYVIMDRALPFIGDGLKPVQRRIVYAMSELGLNASAKFKKSARTVGDVLGKYHPHGDSACYEAMVLMAQPFSYRYPLVDGQGNWGAPDDPKSFAAMRYTESRLSKYSELLLSELGQGTADWVPNFDGTLQEPKMLPARLPNILLNGTTGIAVGMATDIPPHNLREVAQAAIALIDQPKTTLDQLLDIVQGPDYPTEAEIITSRAEIRKIYENGRGSVRMRAVWKKEDGAVVISALPHQVSGARVLEQIAAQMRNKKLPMVDDLRDESDHENPTRLVIVPRSNRVDMDQVMNHLFATTDLEKSYRINLNMIGLDGRPAVKNLLEILSEWLVFRRDTVRRRLNYRLEKVLKRLHILEGLLVAFLNIDEVIEIIRNEDEPKPALMSRFGLTETQAEAILELKLRHLAKLEEMKIRGEQSELEKERDQLQGILASERKMNNLLKKELQADAQAYGDDRRSPLQEREEAKAMSEHDMLPSEPVTIVLSQMGWVRSAKGHDIDAPGLNYKAGDSFKAAVKGKSNQPVVFVDSTGRSYAIDPITLPSARGQGEPLTGKLTLPPGATVDHMLMESDDQKLLMASDAGYGFVCTFNDLVARNRAGKALITLPENAHVMPPVVIEDASDMLLAITQAGRMLMFPVSDLPQLSKGKGNKIINIPSAEAARGEDGLAQLYVLPPQSTLTIHVGKEKIKLRPEELQKVTGERGRRGTLMAGLQRIDRVEIDSPRRASSGDSEE
notes: ParC, E. coli, full length, with two substitutions; also called ParC^EA; source: site-directed mutagenesis, purified using the same protocol as ParC; not shown: His6, N-terminal, kept
Q: B3 was tested. Which “stoichiometry N” value [1] did it give?
A: 2

B4: ParE-His (enzyme, E. coli, UniProt P20083 1-630, looked up)
chain: MTQTYNADAIEVLTGLEPVRRRPGMYTDTTRPNHLGQEVIDNSVDEALAGHAKRVDVILHADQSLEVIDDGRGMPVDIHPEEGVPAVELILCRLHAGGKFSNKNYQFSGGLHGVGISVVNALSKRVEVNVRRDGQVYNIAFENGEKVQDLQVVGTCGKRNTGTSVHFWPDETFFDSPRFSVSRLTHVLKAKAVLCPGVEITFKDEINNTEQRWCYQDGLNDYLAEAVNGLPTLPEKPFIGNFAGDTEAVDWALLWLPEGGELLTESYVNLIPTMQGGTHVNGLRQGLLDAMREFCEYRNILPRGVKLSAEDIWDRCAYVLSVKMQDPQFAGQTKERLSSRQCAAFVSGVVKDAFILWLNQNVQAAELLAEMAISSAQRRMRAAKKVVRKKLTSGPALPGKLADCTAQDLNRTELFLVEGDSAGGSAKQARDREYQAIMPLKGKILNTWEVSSDEVLASQEVHDISVAIGIDPDSDDLSQLRYGKICILADADSDGLHIATLLCALFVKHFRALVKHGHVYVALPPLYRIDLGKEVYYALTEEEKEGVLEQLKRKKGKPNVQRFKGLGEMNPMQLRETTLDPNTRRLVQLTIDDEDDQRTDAMMDMLLAKKRSEDRRNWLQEKGDMAEIEV
notes: ParE subunit of topoisomerase IV, E. coli; source: overexpressed, purified (TALON, HiTrap Q XL, SEC)
Q: What does the source list for B4?
A: stoichiometry N [1]: 2; binding result [3]: binds
